Assay results: paper PMC3194040

Target: Recombinant full-length His6-tagged DEG7 (Ser206Ala) (Arabidopsis thaliana)
Assay: SEC

## Recombinant full-length His6-tagged DEG7 (Ser206Ala) (enzyme)
  stoichiometry N: 3
